In patent publication US20090148408A1:

Molecular target: envelope glycoproteins of HIV-1HxB2 strain on Env-pseudotyped luciferase reporter virus (HIV-1 HxB2) (UniProt P04578)
Test: cell-based or functional assay

“2D-CD4 secreted by L. jensenii harboring pOSEL651 (P23 promoter-CbsAss-2D-CD4) (from UniProt P01730 26-208)” showed an inhibition of HIV-1 entry (luciferase activity at 48 hours), co-incubation of L. jensenii Xna-651 bacteria at 2.5x10^8/ml with virus and HeLa CD4-CXCR4 cells of 79%.

For “2D-CD4 secreted by L. jensenii harboring pOSEL651 (P23 promoter-CbsAss-2D-CD4) (from UniProt P01730 26-208) (receptor)”, the inhibition of HIV-1 entry (luciferase activity at 48 hours), co-incubation of L. jensenii Xna-651 bacteria at 5x10^8/ml with virus and HeLa CD4-CXCR4 cells was 90%.
